Assay results: paper PMC10999833 (Molecular Biology and Evolution, 2024)
“And” between values parts separate entries of the source, which are not always exact repeats. Identical values can stand only once.

Molecular target: the molecule itself
Experiment: SEC-MALS

B1: ancestor MBP-His6-J^981–1132 (wild-type bacteriophage λ J, C-terminal 152 amino acids, MBP-tagged) (domain or fragment, UniProt P03749 981-1132, looked up)
chain: NCTINGTLRAEKIVGDIVKAASAAFPRQRESSVDWPSGTRTVTVTDDHPFDRQIVVLPLTFRGSKRTVSGRTTYSMCYLKVLMNGAVIYDGAANEAVQVFSRIVDMPAGRGNVILTFTLTSTRHSADIPPYTFASDVQVMVIKKQALGISVV
- stoichiometry N: 3 and 2
